Source: PMC5897841, “Development of a multipurpose scaffold for the display of peptide loops” (Protein Engineering, Design and Selection, 2017)

Legend:
CK2α kinase [1] = target: T1, CK2α kinase (Homo sapiens, UniProt P68400); assay: Analytical SEC, CK2α / RAD-CK2β; assay type: binding; conditions: Superdex 75 5/150, 20 mM HEPES pH 7.5, 500 mM NaCl, calibrated
T1 construct: made in house; host or cells: E. coli BL21(DE3) with pUBS520; pBAT4 plasmid
T1 sequence (P68400 2-329): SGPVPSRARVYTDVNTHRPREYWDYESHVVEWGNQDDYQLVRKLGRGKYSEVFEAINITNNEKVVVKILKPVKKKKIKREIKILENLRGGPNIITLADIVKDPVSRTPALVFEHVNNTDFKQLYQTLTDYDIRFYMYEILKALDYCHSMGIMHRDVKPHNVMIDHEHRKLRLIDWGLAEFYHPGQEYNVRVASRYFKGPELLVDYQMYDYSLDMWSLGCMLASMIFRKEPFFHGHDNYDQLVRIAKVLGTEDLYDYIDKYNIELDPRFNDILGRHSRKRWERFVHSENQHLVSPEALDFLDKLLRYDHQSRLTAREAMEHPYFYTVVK
Description: Purified protein samples, either as individual proteins or equimolar mixtures, were separated by analytical SEC over an Superdex 75 5/150 size exclusion column (GE Healthcare) equilibrated with 20 mM HEPES pH 7.5, 500 mM NaCl. Fractions from the peaks from each run were analyzed by SDS-PAGE with purified proteins as standards. The column was calibrated using molecular weight standards (blue dextran, bovine serum albumin, carbonic anhydrase, cytochrome C and aprotonin, Sigma-Aldrich cat. MWGF70) and the calibration curve used to estimate the molecular weights of the three samples (Fig. S5).
Figure S5. MW estimation of CK2α, RAD-CK2β(186-200) and their complexes by SEC Calibration Superdex 75 5/150 HR column
Figure S5. Molecular weight protein standards (Sigma -Aldrich, cat. no. MWGF70, gray diamonds in the plot) were used to calibrate Superdex 75 5/150 column. Blue dextran was used to define the void volume (1.24 ml)and total volume was assumed to be […]. Elution positions of CK2α,(blue […]
main article, were used to estimate the molecular weights of the proteins from the calibration curve. […]

CK2α kinase [2] = target: T1, CK2α kinase; assay: Sedimentation velocity AUC, CK2α / RAD-CK2β; assay type: binding; conditions: 20°C, 20 mM HEPES pH 7.5, 500 mM NaCl

Sedimentation coefficient (s-value) (CK2α kinase [2]; SV AUC, 50 000 rpm, 280 nm, CK2α 6 μM, RAD-CK2β 14.3 μM, complex 5 μM each): 3.0 S
Molar mass from SV AUC (CK2α kinase [2]; boundary spreading): 41.5 kDa
B1: CK2α kinase: Human CK2α kinase (residues 2-329) (protein)
chain: T1 sequence (P68400 2-329)
Molecular weight equivalent of SEC elution volume (CK2α kinase [1]): 45.7 kDa
